Broadly, the Kd is the constant that tells how readily two partners part at equilibrium.

B1: Ab_119702 VHH antibody, 6×His tagged, purified (VHH)
VHH: DVQLVESGGGLVQAGGSLRLSCAASGFPYFSCCMSWHRQAPGKDRELVSSISSDGSTHYADSVRGRFTISKGNARNTLYLQMNSLKPEDTAVYFCAASPRQLGPYYAMDYWGQGTSVTVSH
notes: Produced by Genscript in a mammalian cell line and purified
B2: Ab_113415 VHH antibody, 6×His tagged, purified (VHH)
VHH: QVQLVESGGGLVQPGGSLRLSCAASGSMFSINAVAWYRQAPGEQREPVAAMTSGGSTIYADSVKGRFTISRDNAKNTVYLQMSSLKPEDTAVYYCNGGWSLAMDYWGQGTSVTVSH
notes: Produced by Genscript in a mammalian cell line and purified; The tag is written after the VHH only by convention
B3: Ab_119706 VHH antibody, 6×His tagged, purified (VHH)
VHH: QLQLVESGGGLVQPGGSLRLSCAASGFTLDYYAIGWFRQAPGKEREGVSYISSSGGSTNYADSVKGRFTISRDNAKNTVYLQMNSLKPEDTGVYSCAAAGGYGNSSRYWGQGTSVTVSH
notes: as for B1
B4: Ab_119704 VHH antibody, 6×His tagged, purified (VHH)
VHH: QLQLVESGGGLVQPGGSLRLSCAASGFTLDNYAIGWFRQAPGKEREGVSSISSSGGSTNYADSVKGRFTVSRDNAKHTVYLQMNSLKPEDTAVYYCAGVGDYGRRAMGQGTSVTVSH
notes: as for B1
B5: Ab_119707 VHH antibody, 6×His tagged, purified (VHH)
VHH: EVQLVESGGGSVQAGETLRLSCTASGFTFDDSDMGWYRQAPGDECELVSTISSDGSTNYADSVKGRFTISQDNAKNTVYLQMTSLKPEDTAIYSCRTMASRIGCWGQGTLVTVSH
notes: as for B1

The target in this test is T1, soluble MSLN (Glu2-6-Gly580, Acro Bio Systems, MSN-H82E9-25 ug) (UniProt Q13421 296-580).
T1 construct: range 296-580; Detected with an anti-His secondary antibody in the CAR-T staining, so it carries a His tag; also called soluble mesothelin
T1 sequence (Q13421 other isoform, or with tags, fused parts or gaps limits assumed): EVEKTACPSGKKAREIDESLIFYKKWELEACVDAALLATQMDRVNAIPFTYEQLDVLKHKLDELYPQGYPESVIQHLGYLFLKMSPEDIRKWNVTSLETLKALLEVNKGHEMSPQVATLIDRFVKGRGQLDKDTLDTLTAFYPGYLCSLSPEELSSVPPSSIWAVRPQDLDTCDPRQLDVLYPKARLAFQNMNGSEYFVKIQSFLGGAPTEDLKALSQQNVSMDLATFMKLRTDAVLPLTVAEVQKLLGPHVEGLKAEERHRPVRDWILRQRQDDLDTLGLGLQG
Kind of test: biolayer interferometry (BLI) with soluble MSLN. Here is the method:
Experiments were undertaken to characterize the ability of the anti-MSLN VHH antibodies to bind MSLN. 6×His tagged (SEQ ID NO: 93) VHH antibodies were produced by Genscript in a mammalian cell line and purified. The purified VHH antibodies were tested using a flow cytometry-based assay to see how well they bound mesothelin expressed on cells (FIG. 9A). […] Also, biolayer interferometry (BLI) was used to accurately assess the binding affinity (Kd) of the anti-MSLN VHH antibodies (Table 5). BLI was conducted with soluble MSLN (Glu2-6-Gly580, Acro Bio Systems, MSN-H82E9-25 ug). […] After exposure to the media containing the soluble MSLN, an anti-His secondary antibody was used to detect CAR-T cells binding the MSLN. T cells expressing CARs containing the anti-MSLN VHH antibodies or SS1 as antigen binding domains bound the soluble MSLN.
B1 came in with a Kd of 5.32 nM.

B2 registered a Kd of 3.69 nM.

For the molecule B3, binding was characterised by a dissociation constant (Kd) of 11.5 nM.

B4 registered a Kd of 4.49 nM.

Regarding B5, the dissociation constant (Kd) was 5.95 nM.

The record behind these values is patent publication US20260125465A1 (BROAD INSTITUTE, published 2026).
